Data as given in PMC4431388, “Effect of the distal histidine on the peroxidatic activity of monomeric cytoglobin” (F1000Research, 2015).

Biological target: the molecule itself
Assay: SEC; G75 Superdex column equilibrated with 0.1 M sodium phosphate buffer pH 7.4; absorbance at 280 nm; monomer to dimer of the recombinant protein as purified

Protein	stoichiometry N	binding result
human cytoglobin, wildtype (natural protein, UniProt Q8WWM9 1-190, looked up, cytoglobin, human; gene bought from OriGene and transferred into pET28a; monomer runs at 21 kDa; Haem protein; The preparation holds monomer, dimer and a minor polymerised fraction; also called Cygb; WT Cygb) MEKVPGEMEIERRERSEELSEAERKAVQAMWARLYANCEDVGVAILVRFFVNFPSAKQYFSQFKHMEDPLEMERSPQLRKHACRVMGALNTVVENLHDPDKVSSVLALVGKAHALKHKVEPVYFKILSGVILEVVAEEFASDFPPETQRAWAKLRGLIYSHVTAAYKEVGWVQQVPNATTPPATLPSSGP	2	
human cytoglobin H81Y (natural protein, UniProt Q8WWM9 1-190, looked up, cytoglobin, human, distal histidine mutant; Haem protein; also called H81Y Cygb; histidine 81 to tyrosine mutation) MEKVPGEMEIERRERSEELSEAERKAVQAMWARLYANCEDVGVAILVRFFVNFPSAKQYFSQFKHMEDPLEMERSPQLRKYACRVMGALNTVVENLHDPDKVSSVLALVGKAHALKHKVEPVYFKILSGVILEVVAEEFASDFPPETQRAWAKLRGLIYSHVTAAYKEVGWVQQVPNATTPPATLPSSGP		binds
human cytoglobin H81V (natural protein, UniProt Q8WWM9 1-190, looked up, cytoglobin, human, distal histidine mutant; Haem protein; also called H81V Cygb; histidine 81(E7) to valine mutation) MEKVPGEMEIERRERSEELSEAERKAVQAMWARLYANCEDVGVAILVRFFVNFPSAKQYFSQFKHMEDPLEMERSPQLRKVACRVMGALNTVVENLHDPDKVSSVLALVGKAHALKHKVEPVYFKILSGVILEVVAEEFASDFPPETQRAWAKLRGLIYSHVTAAYKEVGWVQQVPNATTPPATLPSSGP		binds
